From patent US20090017017A1 (SYMPHOGEN A S, published 2009)
Residue numbers refer to the chain shown, from its start.

T1: Rhesus D antigen (human, UniProt Q02161 2-417)
T1 construct: whole, on cells; Presented on RhD(+) erythrocytes; also called RhD; RhD antigen
T1 sequence (looked up): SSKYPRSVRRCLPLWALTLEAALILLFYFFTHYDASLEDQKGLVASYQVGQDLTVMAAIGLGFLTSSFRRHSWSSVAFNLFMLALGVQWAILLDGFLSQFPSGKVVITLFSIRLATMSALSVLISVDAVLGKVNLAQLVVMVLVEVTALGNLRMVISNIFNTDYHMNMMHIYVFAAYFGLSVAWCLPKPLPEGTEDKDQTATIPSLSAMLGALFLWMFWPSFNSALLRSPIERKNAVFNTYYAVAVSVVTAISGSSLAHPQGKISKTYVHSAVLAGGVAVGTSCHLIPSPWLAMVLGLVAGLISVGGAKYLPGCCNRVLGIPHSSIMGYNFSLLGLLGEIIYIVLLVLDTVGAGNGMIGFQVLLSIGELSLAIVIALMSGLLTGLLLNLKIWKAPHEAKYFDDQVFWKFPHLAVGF

B1: RhD203.179F07 (Fab, V domains shown)
VH: EVQLVESGGGVVQPGRSLRLSCAASGFTFSNYGMHWVRQAPGKGLEWVAVIWYDGSNKYYADSVKGRFTISRDNSKNTLYLQMNSLRAEDTAVYYCAREMVSYSSSWYRRYYYYVMDVWGKGTTVTVSS
VL: QSALTQPASVSGSPGQSITISCTATSSDIGAYNYVSWYQHHPGKAPKVIITDVNKRPSGVPDRFSGSKSGNTASLTISGLQPEDEAEYSCCSYAGTYSYVFGTGTKVTVLS
notes: Tested as Fab in E. coli periplasmic extract (VH on human gamma 1 CH1, vector Em351)
B2: RhD202.158E07 (Fab, V domains shown)
VH: QVQLVESGGGVVQPGRSLRLSCAASGFTFSSYGMHWVRQAPGKGLEWVAVIWFDGSNRYYGDSVKGRVTISRDNSKNTLYLRMNSLRAEDTAVYYCAREFYTRSGLWSQGYSYYMDVWGKGTTVTVSS
VL: EIVLTQSPGTLSLSPGERATLSCRASQSVSSSYLAWYQHKPGQAPRLLIYGSSNRATGIPDRFSGSGSGTDFTVTISRLEPEDFAVYYCQQYGTAPYTFGQGTKLEIKR
notes: as for B1
B3: RhD190.119F05 (Fab, V domains shown)
VH: EVQLVETGGGVVQPGRSLRLSCAASGFSFSNYGMHWVRQAPGKGLEWVAVIWFDGSIKYYVDSVKGRFTISRDNSKNTLYLQMNSLRAEETAIYFCARENSVLVPGTIRRRYYLDYWGQGTLVTVSS
VL: DIQLTQSPSSLSASVGDRVTITCRASQSISSYLNWYQQKPGEAPKLLIYVASTLQSGAPSRFSGSGSGTDYTLTISSLQPEDSATFYCQQTYSPPYTFGQGTKLEIKR
notes: as for B1
B4: RhD193.126G05 (Fab, V domains shown)
VH: QVQLVETGGGVVQPGRSLRLSCAASGFTFSSYGMHWVRQAPGKGLEWVAVIWYDGSNKDYADPVKGRFTISRDNSKNTLYLQMNSLRAEDTAVYYCAREIASRGYSRYLYYFDSWGQGTLVTVSS
VL: DIQMTQSPSSLSASVGDRVTITCRASQSISSYLNWYQQNPGKAPKLLIYGASNLQSGVPSRFSGSGSGTDFTLTISSLQPEDFATYYCQQSYSTLALTFGGGTKVEIKR
notes: as for B1
B5: RhD297.126E06 (Fab, V domains shown)
VH: B4 VH with T7S, S30R, S31T, P63S, Y80H, F112L, S114F
VL: B4 VL with M4L
notes: as for B1
B6: RhD197.127A08 (Fab, V domains shown)
VH: QVQLVESGGGVVQPGRSLRLSCAASGFTFSNYGMHWVRQAPGKGLEWVAVIWFDGSNRDYADSVKGRFTISRDNSKKTLYLQMNSLRAEDTAVYYCATELARGRLRALEYWGQGTLVTVSS
VL: QTVVTQEPSLTVSPGGTVTLTCASSTGAVTTGYYPNWFQQKPGQAPRALIYSTSKKHSWTPARFSGSLLGGKAALTLSGVQPEDEAEYYCLLFYGGAQLGVFGGGTKLTVLG
notes: Tested as Fab in E. coli periplasmic extract (VH on human gamma 1 CH1, vector Em351); Lambda clone
B7: RhD207.127A11 (Fab, V domains shown)
VH: EVQLVESGGGVVQPGRSLRLSCAASGFTFSSYGMHWVRQAPGKGLEWVAVIWYDGSNKDYVDSVKGRFTISRDNSKNTLYLQMNSLRAEDTAVYYCARELAKGRLRDLDHWGQGTLVTVSS
VL: B6 VL with T2A, I50V, Y51H
notes: as for B1
B8: RhD157.119D11 (Fab, V domains shown)
VH: EVQLVESGGGLVQPGGSLRLSCVASGFTFRSFDMNWVRQAPGKGLEWVSYINSRGSTIYYADSVKGRFTISRENAKNSLYLQMNSLRAEDTAVYYCARDLYGDYDPKSYYYYGMGVWGQGTTVTVSS
VL: EIVLTQSPATLSLSPGERATLSCRASQSVSSYLAWYQQKRGQAPRLLIFNASNRATGIPARFSGSGSGTDFTLTISSLEPEDFAVYYCQQRSSWPPMYTFGQGTKLEIKR
notes: as for B1
B9: RhD200.164G10 (Fab, V domains shown)
VH: VQLVESGGGGVVQPGRSLRLSCAASGFTFSSYGMHWVRQAPGKGLEWVAVIWYDGSNKYYADSVKGRFTISRDNSKNTLYLQMNSLRAEDTAVYYCARESTLYSSSWYRRYYYYGMDVWGQGTTVTVSS
VL: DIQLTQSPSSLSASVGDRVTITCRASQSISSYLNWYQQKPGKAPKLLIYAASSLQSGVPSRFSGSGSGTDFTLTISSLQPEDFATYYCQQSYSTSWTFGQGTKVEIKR
notes: as for B1
B10: RhD201.164H12 (Fab, V domains shown)
VH: B1 VH with E1Q, N31S, G33A, W52S, M100S, V101T, S102L, V115S, K121Q
VL: EIVLTQSPATLSVSPGERATLSCRASQSVTSNLAWYQQKPGQAPRLLIYGASTRATGVPARFSGSGSGTEFSLTISSLQSEDFAVYYCQQYNNWPPIFTFGPGTKLDIKR
notes: as for B1
B11: RhD191.119E08 (Fab, V domains shown)
VH: QVQLVESGGDLVQPGGSLRLSCAASGFTFRSYEMNWVRQAPGKGLEWVSYINSRGNTKYYADSVKGRFTISRDNAKKSLYLQMSSLRAEDTAVYYCARNLFGDYDLKSYYYNAMDVWGQGTLVTVSS
VL: EIVLTQSPGTLSSSPGERATLSCRASQSVTSRYLAWYQQKHGQAPRLLIYGTSTRATGIPDRFSGGGSQTDFTLTISRLEPEDFAVYYCQHYDDSISTYIFGPGTELEIKR
notes: as for B1
B12: RhD192.119G06 (Fab, V domains shown)
VH: QVQLVESGGGLVKPGGSLRLSCAASGFTFSSYAMNWVRQAPGKGLEWVSSISGTSSYIYYADSVKGRFTIFRDNAKSSVYLQMNSLRVEDTAVYYCARDRWWGMVRRVFPTYPFDYWGQGTLVTVSS
VL: DIQLTQSPSSVSASVGDRVTITCRASQGINNLLAWYQQKPGKAPKLLIYAASNLQSGVPSRFSGSGSGTDFTLTINSLQPEDFATYYCQQANSFPLTFGGGTKVEIKR
notes: as for B1
B13: RhD194.126G10 (Fab, V domains shown)
VH: QVTLKESGPVLVKPTETLTLTCTVSGFSLSNARMGVSWIRQPPGKALEWLAHIFSNDEKSYSTSLKSRLTISKDTSKSQVVLTMTNMDPVDTATYYCARMRLTMVRGVITYYYYSMDVWGQGTTVTVSS
VL: DIQMTQSPSSLSASVGDRVTITCRASQSISTYLNWYQQKPGKAPKLLIYAASTLQSGVPSRFSGSGSGTHFTLTISSLQREDFATYYCQQTYRTPTWTFGQGTKVEIKR
notes: as for B1
B14: RhD298.126E10 (Fab, V domains shown)
VH: QVQLVESGGGVVQPGRSLRLSCAASGFTFSSYGMHWVRQAPGKGLEWVAVIWYDGSNKYYADSVKGRFTISRDNSKNTLYLQMNSVRAEDTAVYYCARDLSTQRGYSRYYYVMDVWGQGTTVTVSS
VL: B13 VL with Y49S, T53S, H70D, F83Y, T85A, T91S, R93S, T96P, W97Y, V105L
notes: as for B1
B15: RhD196.126H11 (Fab, V domains shown)
VH: B14 VH with Y59D, D99E, Y110H
VL: B13 VL with T91S, R93G
notes: as for B1
B16: RhD198.127F10 (Fab, V domains shown)
VH: B14 VH with E6Q, R16K, S31T, N74T, A88V, S101T, Y110H
VL: DIQMTQSPSSLSASVGDRVTITCRASQSIGNYLNWYQQKPGKAPKLLISAASSLQSGVPSRFSGSGSGTDFTLTISSLHREDYATYYCQQSYSTPPYTFGQGTKLEIKR
notes: as for B1
B17: RhD195.127A07 (Fab, V domains shown)
VH: QVQLQESGPGLVKPSQTLSLTCTVSGGSISSGSYYWSWIRQPAGKGPEWIGRIYTSGSTNYNPSLKSRLTISVDTSKNQFSLKLTSVTAADTAVYYCARAPSYYDSSGYRYWYIDLWGRGTLVTVSS
VL: DIQLTQSPSSLSASVGDRVTITCRASQNINRYLNWYQHKPGRAPELLIYAASTLRRGVPSRFSGSGSGTDFTLTISSLQPEDFATYYCQQSYSRGTFGQGTKVEIKR
notes: as for B1

Target: T1, Rhesus D antigen
Experiment: agglutination assay, Fab periplasmic extract on RhD(+)/RhD(-) RBC mix
Method: After each round of panning single colonies were picked for analysis of their binding properties to red blood cells in agglutination assays. Briefly, single colonies were inoculated into 2×YT/100 μg/mL carbenicillin/1% glucose and shaken overnight at 37° C. The next day, DeepWell plates were inoculated using 900 μl 2×YT/100 μg/mL carbenicillin/0.1% glucose and 10 μl overnight culture. The plates were shaken for two hours at 37° C., before Fab induction was performed with addition of 300 μl 2×YT/100 μg/mL carbenicillin/0.25 mM IPTG per well. The plate was shaken overnight at 30° C. The following day, the bacteria were pelleted by centrifugation (3200×g, 4° C., 10 minutes), and re-suspended in 100 μl of 0.8 M NaCl, 0.2×PBS, 8 mM EDTA, and incubated for 15 minutes on ice in order to perform a periplasmic extraction of the Fab fragments. The plate was transferred to −20° C. and finally the suspension was thawed and centrifugation was performed for 10 minutes at 4° C. and 3200×g. The periplasmic extract was used in ELISA assays for analysis of Fab content and in agglutination assays to evaluate the binding potential of the individual Fab fragments.
The agglutination assay was performed as follows: RhD(−) and RhD(+) RBC were mixed in a 1:1 ratio, and washed 3 times in PBS. After the final wash, the cell mix was re-suspended in 1% BSA in PBS at a density of 10% cells, 50 μl was added to each well of a 96-plate. Periplasmic extracts were added to the wells. As a positive control Rhesogamma P immunoglobulin (Aventis) was used according to the manufacturer's instructions. The plates were incubated for one hour at room temperature with gentle shaking. The cells were washed three times with PBS, before the secondary antibody was added (goat anti-human Fab/FITC conjugate, Sigma F5512) in a 1:100 dilution. The plates were left for agglutination for one hour at room temperature without shaking. Fab fragments positive in the agglutination assay was determined by visual inspection, and recorded by taking a picture. Quantization of the binding activity of the Fab fragments was performed by FACS analysis of the agglutination samples.

| binding result | Binder |
| --- | --- |
| binds | B1 |
| binds | B2 |
| binds | B3 |
| binds | B4 |
| binds | B5 |
| binds | B6 |
| binds | B7 |
| binds | B8 |
| binds | B9 |
| binds | B10 |
| binds | B11 |
| binds | B12 |
| binds | B13 |
| binds | B14 |
| binds | B15 |
| binds | B16 |
| binds | B17 |
